According to PMC4109008:

Biological target: zipper-mEos3.2C (split site 164E)
Assay: split reporter (BiFC, NanoBiT); BiFC signal of E. coli cultures read in a plate reader with 480 nm excitation at different culture durations, normalised to OD600; zippers against mutated zippers

Substance: mEos3.2N-Zipper (split site 164E) (peptide)
- complementation efficiency (intensity ratio of the specific BiFC signal by leucine zippers to the nonspecific signal via mutated leucine zippers): < 12
